± gives the standard deviation of the averaged measurements.
Key:
MCF7 = assay: percentage of EdU-negative (G0-arrested) nuclei per well, 72 h; higher = more G0 arrest; conditions: reference: sequence is the full UniProt precursor, the tested protein was the secreted form or ectodomain
hTERT-HMEC = assay: as above; conditions: reference: sequence is the full UniProt precursor, the tested protein was the secreted form or ectodomain
[1] = protein concentration 0.02075 µM
[2] = protein concentration 0.2075 µM
[3] = protein concentration 0.0239275 µM
[4] = protein concentration 0.239275 µM
[5] = protein concentration 0.0245 µM
[6] = protein concentration 0.0225 µM
[7] = protein concentration 0.0199575 µM
[8] = protein concentration 0.03125 µM
[9] = protein concentration 0.199575 µM
[10] = protein concentration 0.3125 µM
[11] = protein concentration 0.0194286 µM
[12] = protein concentration 0.194286 µM
[13] = protein concentration 0.03025 µM
[14] = protein concentration 0.3025 µM
[15] = protein concentration 0.0059525 µM
[16] = protein concentration 0.059525 µM
[17] = protein concentration 0.0174286 µM
[18] = protein concentration 0.174286 µM
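Further: secreted proteins added to cultured cells, EdU pulse at the end, nuclei found by Hoechst imaging, EdU status from nuclear versus surrounding ring intensity ratio, PBS as neutral control.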

MGTLPWLLAFFILGLQAWDTPTIVSRKEWGARPLACRALLTLPVAYIITDQLPGMQCQQQSVCSQMLRGLQSHSVYTIGWCDVAYNFLVGDDGRVYEGVGWNIQGLHTQGYNNISLGIAFFGNKIGSSPSPAALSAAEGLISYAIQKGHLSPRYIQPLLLKEETCLDPQHPVMPRKVCPNIIKRSAWEARETHCPKMNLPAKYVIIIHTAGTSCTVSTDCQTVVRNIQSFHMDTRNFCDIGYHFLVGQDGGVYEGVGWHIQGSHTYGFNDIALGIAFIGYFVEKPPNAAALEAAQDLIQCAVVEGYLTPNYLLMGHSDVVNILSPGQALYNIISTWPHFKH [Q96LB9]
percentage of EdU-negative (MCF7; [1]): 25.5 ± 4.8%
percentage of EdU-negative (MCF7; [2]): 26.6 ± 2.1%
percentage of EdU-negative (hTERT-HMEC; [1]): 5.52 ± 0.69%
percentage of EdU-negative (hTERT-HMEC; [2]): 5.51 ± 0.12%

MGTLSAPPCTQRIKWKGLLLTASLLNFWNLPTTAQVTIEAEPTKVSEGKDVLLLVHNLPQNLTGYIWYKGQMRDLYHYITSYVVDGEIIIYGPAYSGRETAYSNASLLIQNVTREDAGSYTLHIIKGDDGTRGVTGRFTFTLHLETPKPSISSSNLNPRETMEAVSLTCDPETPDASYLWWMNGQSLPMTHSLKLSETNRTLFLLGVTKYTAGPYECEIRNPVSASRSDPVTLNLLPKLPKPYITINNLNPRENKDVLNFTCEPKSENYTYIWWLNGQSLPVSPRVKRPIENRILILPSVTRNETGPYQCEIRDRYGGIRSDPVTLNVLYGPDLPRIYPSFTYYRSGEVLYLSCSADSNPPAQYSWTINEKFQLPGQKLFIRHITTKHSGLYVCSVRNSATGKESSKSMTVEVSDWTVP
percentage of EdU-negative (MCF7; [3]): 25 ± 2.2%
percentage of EdU-negative (MCF7; [4]): 25.7 ± 1.8%
percentage of EdU-negative (hTERT-HMEC; [3]): 5.16 ± 0.84%
percentage of EdU-negative (hTERT-HMEC; [4]): 7.5 ± 0.26%

MGTPRIQHLLILLVLGASLLTSGLELYCQKGLSMTVEADPANMFNWTTEEVETCDKGALCQETILIIKAGTETAILATKGCIPEGEEAITIVQHSSPPGLIVTSYSNYCEDSFCNDKDSLSQFWEFSETTASTVSTTLHCPTCVALGTCFSAPSLPCPNGTTRCYQGKLEITGGGIESSVEVKGCTAMIGCRLMSGILAVGPMFVREACPHQLLTQPRKTENGATCLPIPVWGLQLLLPLLLPSFIHFS [Q9BY14]
percentage of EdU-negative (MCF7; [5]): 25.5 ± 2%
percentage of EdU-negative (MCF7; protein concentration 0.245 µM): 26.5 ± 0.59%
percentage of EdU-negative (hTERT-HMEC; [5]): 5.14 ± 0.066%
percentage of EdU-negative (hTERT-HMEC; protein concentration 0.245 µM): 5.33 ± 0.8%

MGTSLLCWMALCLLGADHADTGVSQNPRHKITKRGQNVTFRCDPISEHNRLYWYRQTLGQGPEFLTYFQNEAQLEKSRLLSDRFSAERPKGSFSTLEIQRTEQGDSAMYLCASSL
percentage of EdU-negative (MCF7; [6]): 27 ± 1.4%
percentage of EdU-negative (MCF7; protein concentration 0.225 µM): 26.8 ± 1.4%
percentage of EdU-negative (hTERT-HMEC; [6]): 5.02 ± 0.49%
percentage of EdU-negative (hTERT-HMEC; protein concentration 0.225 µM): 6.26 ± 1.2%

MGTSPSSSTALASCSRIARRATATMIAGSLLLLGFLSTTTAQPEQKASNLIGTYRHVDRATGQVLTCDKCPAGTYVSEHCTNTSLRVCSSCPVGTFTRHENGIEKCHDCSQPCPWPMIEKLPCAALTDRECTCPPGMFQSNATCAPHTVCPVGWGVRKKGTETEDVRCKQCARGTFSDVPSSVMKCKAYTDCLSQNLVVIKPGTKETDNVCGTLPSFSSSTSPSPGTAIFPRPEHMETHEVPSSTYVPKGMNSTESNSSASVRPKVLSSIQEGTVPDNTSSARGKEDVNKTLPNLQVVNHQQGPHHRHILKLLPSMEATGGEKSSTPIKGPKRGHPRQNLHKHFDINEHLPWMIVLFLLLVLVVIVVCSIRKSSRTLKKGPRQDPSAIVEKAGLKKSMTPTQNREKWIYYCNGHGIDILKLVAAQVGSQWKDIYQFLCNASEREVAAFSNGYTADHERAYAALQHWTIRGPEASLAQLISALRQHRRNDVVEKIRGLMEDTTQLETDKLALPMSPSPLSPSPIPSPNAKLENSALLTVEPSPQDKNKGFFVDESEPLLRCDSTSSGSSALSRNGSFITKEKKDTVLRQVRLDPCDLQPIFDDMLHFLNPEELRVIEEIPQAEDKLDRLFEIIGVKSQEASQTLLDSVYSHLPDLL
percentage of EdU-negative (MCF7; [6]): 27.8 ± 0.67%
percentage of EdU-negative (MCF7; protein concentration 0.225 µM): 25.7 ± 4.1%
percentage of EdU-negative (hTERT-HMEC; [6]): 4.84 ± 0.51%
percentage of EdU-negative (hTERT-HMEC; protein concentration 0.225 µM): 5.355 ± 0.035%

MGTTARAALVLTYLAVASAASEGGFTATGQRQLRPEHFQEVGYAAPPSPPLSRSLPMDHPDSSQHGPPFEGQSQVQPPPSQEATPLQQEKLLPAQLPAEKEVGPPLPQEAVPLQKELPSLQHPNEQKEGTPAPFGDQSHPEPESWNAAQHCQQDRSQGGWGHRLDGFPPGRPSPDNLNQICLPNRQHVVYGPWNLPQSSYSHLTRQGETLNFLEIGYSRCCHCRSHTNRLECAKLVWEEAMSRFCEAEFSVKTRPHWCCTRQGEARFSCFQEEAPQPHYQLRACPSHQPDISSGLELPFPPGVPTLDNIKNICHLRRFRSVPRNLPATDPLQRELLALIQLEREFQRCCRQGNNHTCTWKAWEDTLDKYCDREYAVKTHHHLCCRHPPSPTRDECFARRAPYPNYDRDILTIDIGRVTPNLMGHLCGNQRVLTKHKHIPGLIHNMTARCCDLPFPEQACCAEEEKLTFINDLCGPRRNIWRDPALCCYLSPGDEQVNCFNINYLRNVALVSGDTENAKGQGEQGSTGGTNISSTSEPKEE
percentage of EdU-negative (MCF7; [7]): 23.4 ± 2%
percentage of EdU-negative (MCF7; [8]): 25.6 ± 1.1%
percentage of EdU-negative (MCF7; [9]): 25.7 ± 1.2%
percentage of EdU-negative (MCF7; [10]): 26 ± 1.7%
percentage of EdU-negative (hTERT-HMEC; [7]): 5.01 ± 0.46%
percentage of EdU-negative (hTERT-HMEC; [8]): 4.52 ± 0.66%
percentage of EdU-negative (hTERT-HMEC; [9]): 5.74 ± 0.78%
percentage of EdU-negative (hTERT-HMEC; [10]): 5.29 ± 0.63%

MGVAARPPALRHWFSHSIPLAIFALLLLYLSVRSLGARSGCGPRAQPCVPGETAPFQVRQESGTLEAPERKQPPCLGPRGMLGRMMRRFHASLKPEGDVGLSPYLAGWRALVEFLTPLGSVFAFATREAFTKVTDLEARVHGPDAEHYWSLVAMAAWERRAGLLEQPGAAPRDPTRSSGSRTLLLLHRALRWSQLCLHRVATGALGGPDAGVQCSDAYRAALGPHHPWLVRQTARLAFLAFPGRRRLLELACPGATEAEARAALVRAAGTLEDVYNRTQSLLAERGLLQLA [A6NH11]
percentage of EdU-negative (MCF7; [11]): 23.4 ± 0.51%
percentage of EdU-negative (MCF7; [12]): 25.5 ± 2.7%
percentage of EdU-negative (hTERT-HMEC; [11]): 5.02 ± 1.8%
percentage of EdU-negative (hTERT-HMEC; [12]): 5.53 ± 0.54%

MGVCGYLFLPWKCLVVVSLRLLFLVPTGVPVRSGDATFPKAMDNVTVRQGESATLRCTIDDRVTRVAWLNRSTILYAGNDKWSIDPRVIILVNTPTQYSIMIQNVDVYDEGPYTCSVQTDNHPKTSRVHLIVQVPPQIMNISSDITVNEGSSVTLLCLAIGRPEPTVTWRHLSVKEGQGFVSEDEYLEISDIKRDQSGEYECSALNDVAAPDVRKVKITVNYPPYISKAKNTGVSVGQKGILSCEASAVPMAEFQWFKEETRLATGLDGMRIENKGRMSTLTFFNVSEKDYGNYTCVATNKLGNTNASITLYGPGAVIDGVNSASRALACLWLSGTLLAHFFIKF
percentage of EdU-negative (MCF7; [6]): 23.9 ± 0.79%
percentage of EdU-negative (MCF7; protein concentration 0.225 µM): 23.8 ± 1.2%
percentage of EdU-negative (hTERT-HMEC; [6]): 4.81 ± 0.74%
percentage of EdU-negative (hTERT-HMEC; protein concentration 0.225 µM): 5.39 ± 1.6%

MGVCGYLFLPWKCLVVVSLRLLFLVPTGVPVRSGDATFPKAMDNVTVRQGESATLRCTIDNRVTRVAWLNRSTILYAGNDKWCLDPRVVLLSNTQTQYSIEIQNVDVYDEGPYTCSVQTDNHPKTSRVHLIVQVSPKIVEISSDISINEGNNISLTCIATGRPEPTVTWRHISPKAVGFVSEDEYLEIQGITREQSGDYECSASNDVAAPVVRRVKVTVNYPPYISEAKGTGVPVGQKGTLQCEASAVPSAEFQWYKDDKRLIEGKKGVKVENRPFLSKLIFFNVSEHDYGNYTCVASNKLGHTNASIMLFGPGAVSEVSNGTSRRAGCVWLLPLLVLHLLLKF [Q9P121]
percentage of EdU-negative (MCF7; [13]): 24.73 ± 0.092%
percentage of EdU-negative (MCF7; [14]): 28.9 ± 1.9%
percentage of EdU-negative (hTERT-HMEC; [13]): 5.01 ± 0.68%
percentage of EdU-negative (hTERT-HMEC; [14]): 6.84 ± 0.93%

MGVPFFSSLRCMVDLGPCWAGGLTAEMKLLLALAGLLAILATPQPSEGAAPAVLGEVDTSLVLSSMEEAKQLVDKAYKERRESIKQRLRSGSASPMELLSYFKQPVAATRTAVRAADYLHVALDLLERKLRSLWRRPFNVTDVLTPAQLNVLSKSSGCAYQDVGVTCPEQDKYRTITGMCNNRRSPTLGASNRAFVRWLPAEYEDGFSLPYGWTPGVKRNGFPVALARAVSNEIVRFPTDQLTPDQERSLMFMQWGQLLDHDLDFTPEPAARASFVTGVNCETSCVQQPPCFPLKIPPNDPRIKNQADCIPFFRSCPACPGSNITIRNQINALTSFVDASMVYGSEEPLARNLRNMSNQLGLLAVNQRFQDNGRALLPFDNLHDDPCLLTNRSARIPCFLAGDTRSSEMPELTSMHTLLLREHNRLATELKSLNPRWDGERLYQEARKIVGAMVQIITYRDYLPLVLGPTAMRKYLPTYRSYNDSVDPRIANVFTNAFRYGHTLIQPFMFRLDNRYQPMEPNPRVPLSRVFFASWRVVLEGGIDPILRGLMATPAKLNRQNQIAVDEIRERLFEQVMRIGLDLPALNMQRSRDHGLPGYNAWRRFCGLPQPETVGQLGTVLRNLKLARKLMEQYGTPNNIDIWMGGVSEPLKRKGRVGPLLACIIGTQFRKLRDGDRFWWENEGVFSMQQRQALAQISLPRIICDNTGITTVSKNNIFMSNSYPRDFVNCSTLPALNLASWREAS
percentage of EdU-negative (MCF7; [15]): 24.8 ± 1.3%
percentage of EdU-negative (MCF7; [16]): 26.8 ± 0.65%
percentage of EdU-negative (hTERT-HMEC; [15]): 5.02 ± 0.23%
percentage of EdU-negative (hTERT-HMEC; [16]): 4.74 ± 0.28%

MGWLPLLLLLTQCLGVPGQRSPLNDFQVLRGTELQHLLHAVVPGPWQEDVADAEECAGRCGPLMDCRAFHYNVSSHGCQLLPWTQHSPHTRLRRSGRCDLFQKKDYVRTCIMNNGVGYRGTMATTVGGLPCQAWSHKFPNDHKYTPTLRNGLEENFCRNPDGDPGGPWCYTTDPAVRFQSCGIKSCREAACVWCNGEEYRGAVDRTESGRECQRWDLQHPHQHPFEPGKFLDQGLDDNYCRNPDGSERPWCYTTDPQIEREFCDLPRCGSEAQPRQEATTVSCFRGKGEGYRGTANTTTAGVPCQRWDAQIPHQHRFTPEKYACKDLRENFCRNPDGSEAPWCFTLRPGMRAAFCYQIRRCTDDVRPQDCYHGAGEQYRGTVSKTRKGVQCQRWSAETPHKPQFTFTSEPHAQLEENFCRNPDGDSHGPWCYTMDPRTPFDYCALRRCADDQPPSILDPPDQVQFEKCGKRVDRLDQRRSKLRVVGGHPGNSPWTVSLRNRQGQHFCGGSLVKEQWILTARQCFSSCHMPLTGYEVWLGTLFQNPQHGEPSLQRVPVAKMVCGPSGSQLVLLKLERSVTLNQRVALICLPPEWYVVPPGTKCEIAGWGETKGTGNDTVLNVALLNVISNQECNIKHRGRVRESEMCTEGLLAPVGACEGDYGGPLACFTHNCWVLEGIIIPNRVCARSRWPAVFTRVSVFVDWIHKVMRLG [G3XAK1]
percentage of EdU-negative (MCF7; [17]): 22.6 ± 1.9%
percentage of EdU-negative (MCF7; [18]): 27.79 ± 0.11%
percentage of EdU-negative (hTERT-HMEC; [17]): 4.79 ± 0.57%
percentage of EdU-negative (hTERT-HMEC; [18]): 5.55 ± 0.076%
